T1: TIF2.4 (Homo sapiens, UniProt Q15596)
T1 sequence (Q15596 624-1010 limits assumed): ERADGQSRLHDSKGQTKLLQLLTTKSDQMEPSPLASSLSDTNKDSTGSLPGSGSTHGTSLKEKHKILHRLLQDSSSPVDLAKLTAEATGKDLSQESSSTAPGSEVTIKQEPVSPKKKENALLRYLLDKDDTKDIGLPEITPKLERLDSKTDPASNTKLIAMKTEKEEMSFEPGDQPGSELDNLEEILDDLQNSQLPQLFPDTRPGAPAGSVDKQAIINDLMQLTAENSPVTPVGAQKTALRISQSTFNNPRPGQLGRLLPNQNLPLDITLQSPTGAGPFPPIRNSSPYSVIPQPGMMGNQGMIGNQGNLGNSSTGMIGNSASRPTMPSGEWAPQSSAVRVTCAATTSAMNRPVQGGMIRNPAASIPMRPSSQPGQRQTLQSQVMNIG

T2: GR (Rattus norvegicus, UniProt P06536)
T2 construct: plus VP16 fused to the indicated full length receptors; expressed in transfected cells; host or cells: CV-1
T2 sequence (P06536 1-795): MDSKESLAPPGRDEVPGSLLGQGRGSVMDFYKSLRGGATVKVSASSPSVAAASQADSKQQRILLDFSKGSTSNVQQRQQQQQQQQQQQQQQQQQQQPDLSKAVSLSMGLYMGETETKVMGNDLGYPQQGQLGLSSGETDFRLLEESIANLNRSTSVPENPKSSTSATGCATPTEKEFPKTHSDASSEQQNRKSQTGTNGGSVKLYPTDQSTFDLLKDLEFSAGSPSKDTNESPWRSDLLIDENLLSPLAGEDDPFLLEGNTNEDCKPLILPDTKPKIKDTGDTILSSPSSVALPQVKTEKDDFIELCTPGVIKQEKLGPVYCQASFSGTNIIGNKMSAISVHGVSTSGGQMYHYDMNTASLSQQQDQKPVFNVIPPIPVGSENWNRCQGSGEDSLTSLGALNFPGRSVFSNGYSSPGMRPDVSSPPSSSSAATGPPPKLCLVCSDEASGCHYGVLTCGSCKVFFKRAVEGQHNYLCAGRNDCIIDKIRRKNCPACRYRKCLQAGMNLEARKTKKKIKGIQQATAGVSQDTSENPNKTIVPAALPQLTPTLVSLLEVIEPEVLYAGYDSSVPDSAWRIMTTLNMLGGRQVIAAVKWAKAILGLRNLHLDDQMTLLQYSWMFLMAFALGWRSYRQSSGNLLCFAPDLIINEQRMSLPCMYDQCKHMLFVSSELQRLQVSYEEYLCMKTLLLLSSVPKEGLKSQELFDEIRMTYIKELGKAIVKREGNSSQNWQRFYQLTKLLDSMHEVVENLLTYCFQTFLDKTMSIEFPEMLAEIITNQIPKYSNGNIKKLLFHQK

B1: STAMP: SRC-1 and TIF2 Associated Modulatory Protein, 1277 amino acid human polypeptide, expressed from transfected plasmid (protein)
chain: MARDLEETASSSEDEEVISQEDHPCIMWTGGCRRIPVLVFHADAILTKDNNIRVIGERYHLSYKIVRTDSRLVRSILTAHGFHEVHPSSTDYNLMWTGSHLKPFLLRTLSEAQKVNHFPRSYELTRKDRLYKNIIRMQHTHGFKVFHILPQTFLLPAEYAEFCNSYSKDRGPWIVKPVASSRGRGVYLINNPNQISLEENILVSRYINNPLLIDDFKFDVRLYVLVTSYDPLVIYLYEEGLARFATVRYDQGAKNIRNQFMHLTNYSVNKKSGDYVSCDDPEVEDYGNKWSMSAMLRYLKQEGRDTTALMAHVEDLIIKTIISAELAIATACKTFVPHRSSCFELYGFDVLIDSTLKPWLLEVNLSPSLACDAPLDLKIKASMISDMFTVVGFVCQDPAQRASTRPIYPTFESSRRNPFQKPQRCRPLSASDAEMKNLVGSAREKGPGKLGGSVLGLSMEEIKVLRRVKEENDRRGGFIRIFPTSETWEIYGSYLEHKTSMNYMLATRLFQDRMTADGAPELKIESLNSKAKLHAALYERKLLSLEVRKRRRRSSRLRAMRPKYPVITQPAEMNVKTETESEEEEEVALDNEDEEQEASQEESAGFLRENQAKYTPSLTALVENTPKENSMKVREWNNKGGHCCKLETQELEPKFNLMQILQDNGNLSKMQARIAFSAYLQHVQIRLMKDSGGQTFSASWAAKEDEQMELVVRFLKRASNNLQHSLRMVLPSRRLALLERRRILAHQLGDFIIVYNKETEQMAEKKSKKKVEEEEEDGVNMENFQEFIRQASEAELEEVLTFYTQKNKSASVFLGTHSKISKNNNNYSDSGAKGDHPETIMEEVKIKPPKQQQTTEIHSDKLSRFTTSAEKEAKLVYSNSSSGPTATLQKIPNTHLSSVTTSDLSPGPCHHSSLSQIPSAIPSMPHQPTILLNTVSASASPCLHPGAQNIPSPTGLPRCRSGSHTIGPFSSFQSAAHIYSQKLSRPSSAKAGSCYLNKHHSGIAKTQKEGEDASLYSKRYNQSMVTAELQRLAEKQAARQYSPSSHINLLTQQVTNLNLATGIINRSSASAPPTLRPIISPSGPTWSTQSDPQAPENHSSSPGSRSLQTGGFAWEGEVENNVYSQATGVVPQHKYHPTAGSYQLQFALQQLEQQKLQSRQLLDQSRARHQAIFGSQTLPNSNLWTMNNGAGCRISSATASGQKPTTLPQKVVPPPSSCASLVPKPPPNHEQVLRRATSQKASKGSSAEGQLNGLQSSLNPAASVPITSSTDPAHTKI
B2: 6-6CL1: STAMP fragment amino acids 623-834, coactivator interaction domain (CID) (protein)
chain: ENTPKENSMKVREWNNKGGHCCKLETQELEPKFNLMQILQDNGNLSKMQARIAFSAYLQHVQIRLMKDSGGQTFSASWAAKEDEQMELVVRFLKRASNNLQHSLRMVLPSRRLALLERRRILAHQLGDFIIVYNKETEQMAEKKSKKKVEEEEEDGVNMENFQEFIRQASEAELEEVLTFYTQKNKSASVFLGTHSKISKNNNNYSDSGAKG
B3: STAMP834C: STAMP fragment amino acids 834-1277, receptor interaction domain (RID) (protein)
chain: GDHPETIMEEVKIKPPKQQQTTEIHSDKLSRFTTSAEKEAKLVYSNSSSGPTATLQKIPNTHLSSVTTSDLSPGPCHHSSLSQIPSAIPSMPHQPTILLNTVSASASPCLHPGAQNIPSPTGLPRCRSGSHTIGPFSSFQSAAHIYSQKLSRPSSAKAGSCYLNKHHSGIAKTQKEGEDASLYSKRYNQSMVTAELQRLAEKQAARQYSPSSHINLLTQQVTNLNLATGIINRSSASAPPTLRPIISPSGPTWSTQSDPQAPENHSSSPGSRSLQTGGFAWEGEVENNVYSQATGVVPQHKYHPTAGSYQLQFALQQLEQQKLQSRQLLDQSRARHQAIFGSQTLPNSNLWTMNNGAGCRISSATASGQKPTTLPQKVVPPPSSCASLVPKPPPNHEQVLRRATSQKASKGSSAEGQLNGLQSSLNPAASVPITSSTDPAHTKI

Tests used:
TIF2.4 = biological target: T1, TIF2.4; test: Cell-free pulldown of [35S]-labeled STAMP constructs by GST/TIF2.4; assay type: binding; conditions: compared with GST itself
Source text: FIGS. 7A and 7B illustrate the domains of STAMP that bind to TIF2.4 (FIG. 7A) and GR (FIG. 7B) in cell-free pulldown assays. Bacterially expressed GST-chimeras (GST/TIF2.4 in FIG. 7A and GST/STAMP segments in FIG. 7B) were immobilized on glutathione-Sepharose beads. The [^35S]methionine labeled STAMP fragments (FIG. 7A) or wild type GR (FIG. 7B) that were retained on the matrix by binding to the GST chimeras were separated on SDS PAGE gels and visualized by autoradiography. Specific binding was seen as when the GST/TIF2.4 or GST/STAMP bands were darker than the GST control bands. […] Similar results were obtained in a second experiment.
Template DNA plasmids (1 μg), 40 μl of Promega TNT (SP6) quick coupled transcription/translation system master mixture, and 2 μl of [^35S]methionine (Amersham Biosciences) were brought up to a total volume of 50 μl with H2O and incubated at 30° C. for 90 min according to the manufacturer's (Promega) recommendations. If hormone stimulation is needed, hormones (Dex, etc) were added into the transcription-translation reaction during the 30° C. incubation to both increase the stability of the synthesized GR and to cause activation of the GR-steroid complexes.
These assays were conducted generally as described (He et al., 2002). Sonicated bacterial lysates (1 ml) containing overexpressed GST, GST/TIF2.4, or GST/STAMP-956C were incubated with 160 μl of glutathione-Sepharose 4B beads for 1 hr at 0° C. The mixture was centrifuged (12,000×g), the supernatant was discarded, and the pellet was washed with phosphate-buffered saline (3×1 ml). Each 20-μl sample of immobilized GST or GST-chimera was then incubated overnight with 10 μl of ^35S-labeled in vitro translation product. The matrix was washed with phosphate-buffered saline (4×1 ml). The immobilized proteins were removed from the beads by heating at 90° C. for 5 min in 20 μl of 2×SDS loading buffer. The proteins were separated on 8-10% SDS-PAGE gels and detected by radio-autoradiography.

GR = biological target: T2, GR; test: Mammalian two-hybrid assay in CV-1 cells with VP16/GR; assay type: cell-based; conditions: VP16/GR ± 1 μM Dex
Source text: FIGS. 6A and 6B illustrate the domains of STAMP that interact with TIF2.4 (FIG. 6A) and GR (FIG. 6B) in the mammalian two-hybrid assay. […] These CV-1 cells were also transfected with GAL fused to the indicated segments of STAMP along with the FRLuc reporter and Renilla control plasmids. After determining the relative luciferase activities as described in FIG. 2B and 2C, the average values±S.E.M. from 2-5 experiments were plotted. The average fold increase for VP16/TIF2.4 with GAL/STAMP(623-834) in FIG. 6A was 11.0±3.0 (SEM, n=5) above the VP16 control. The values in parentheses above the data bars in FIG. 6B indicate the fold increased interaction ±1 μM Dex.
These assays were conducted as described (He et al., 2002). In particular, the recommended procedure for the Mammalian Matchmaker two-hybrid assay kit (Clontech) was modified slightly by changing from a chloramphenicol acetyltransferase reporter to a Luciferase Reporter pFRLuc (Stratagene), which is under the control of five repeats of the upstream activating sequence for the binding of GAL4.

| Molecule | binding to GST/TIF2.4 (TIF2.4) | interaction with GR (GR) |
| --- | --- | --- |
| B1 | weak interaction | – |
| B2 | strong binding | relative inactivity |
| B3 | neither the amino terminal (N623) nor the C-terminal (834C) fragments exhibit significantly more binding to GST/TIF2.4 than to GST itself | largest agonist-induced changes |

Reference: patent publication US7867500B2, “Cofactor that modulates steroid receptor activities” (The United States of America as represented by the …, priority 2004, dated 2011)
